The text below walks through data of paper PMC5972581 (2018).

The assay addresses T1, GST-OsPGL1^46-604 (rice (Oryza sativa), UniProt B7EDM4).
T1 chain: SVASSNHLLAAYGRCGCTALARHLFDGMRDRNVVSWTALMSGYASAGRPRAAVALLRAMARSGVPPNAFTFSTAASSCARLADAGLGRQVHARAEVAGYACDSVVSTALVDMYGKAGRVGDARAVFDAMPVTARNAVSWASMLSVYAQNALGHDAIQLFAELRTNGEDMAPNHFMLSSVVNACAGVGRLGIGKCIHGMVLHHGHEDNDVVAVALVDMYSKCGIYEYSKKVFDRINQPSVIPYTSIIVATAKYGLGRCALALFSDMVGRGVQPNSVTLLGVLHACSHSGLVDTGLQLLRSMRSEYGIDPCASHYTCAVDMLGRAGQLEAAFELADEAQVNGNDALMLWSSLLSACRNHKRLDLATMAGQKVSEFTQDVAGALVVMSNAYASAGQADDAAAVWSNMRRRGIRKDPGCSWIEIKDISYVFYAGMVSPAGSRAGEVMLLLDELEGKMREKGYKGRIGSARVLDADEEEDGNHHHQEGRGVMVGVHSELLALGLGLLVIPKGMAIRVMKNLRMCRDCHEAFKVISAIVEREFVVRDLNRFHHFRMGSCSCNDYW
Put plainly: GST pull-down.

B1: Trx-OsMORF8-His (protein)
chain: MASASRFLLLSRLPAAAASSTSRLLRPLSAAGSLLPAALAPSAPRAAAAAARCFATQPATSSLRDSSPNWSNRPPKETILLDGCDFEHWLVVVEPPPGDPSNPEPTRDEIIDGYIKTLAQVVGSEEEARHKIYSVSTRHYFAFGALVSEELSYKLKELPKVRWVLPDSYLDVRNKDYGGEPFINGEAVPYDPKYHEEWVRNNARANERSRRNDRPRNFDRSRNFERRRENMQNFQNRDVPPGQGFNSPPPPGQGPVPPRDAPPMHHAQGNVPPPPPPNAGPPNYQPHAPNPQGYTNYQQGGAPGYQGGPPGYQGSNQGYQGPPPPPPSAYQGNNPGYQGGGPGYQGGNPPPYQGGNPGYAPGYHGQGGNPSYQQGGDNYNAGVPAYERDGQGRNYQ
Take B1: the binding result is listed as “binds”.

B2: Trx-OsMORF9-His (protein)
chain: MASFPTTAAAAAAQAFAFALAPKPSSSAAAPSALFPRTAAAAAFPTLAVRGSGKARQPVVAAAAGAGTGSEQRETILLPGCDYNHWLIVMEFPKDPAPTREQMIDTYLNTLATVLGSMEEAKKNMYAFSTTTYTGFQCTVDEETSEKFKGLPGVLWVLPDSYIDVKNKDYGGDKYINGEIIPCTYPTYQPKERRTSKYESRRYERRRDGPPASRRPRPQTAQPESASSS
For B2, the binding result was “binds”.
